The values that follow come from the supplement of paper PMC12042874.

± gives the uncertainty stated by the source.

This data set can be described thus: amyloid nucleation score (Sup35N fusion, yeast selection) (log enrichment); library NNK2; higher = more nucleation; inactive = no reads after selection. The gist of the method: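 Nucleation score is defined as the DiMSum log enrichment of output over input reads, with centring on the mode score of non-aggregating sequences. A minimum of 100 input reads was required for each sequence. Reads came from Illumina sequencing of plasmid inserts from psi-negative yeast expressing Sup35N fused to peptides of 20 random codons, induced with 100 μM copper sulfate for 24 hours and grown 7 days at 30°C on medium lacking adenine and uracil.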
Take LRYNIMWKQHNATAYDEYRA: the amyloid nucleation score is 3.65 ± 0.12.
LSAGPALHSYLSGNVFSIEL gave an amyloid nucleation score of 2.69 ± 0.069.
For LSARFHHAKFLNYSDSRVGQ the value was “inactive”; for LSCCYDDHRLQGRCGSGRFH, 0.946 ± 0.27; for LSCLK, -0.344 ± 0.28.
Consider LSCRWHCIVTLDVAAYNEPE, for which the amyloid nucleation score was 5.765 ± 0.044.
LSEMYTFCEDSRAFTVYWTF gave an amyloid nucleation score of -1.02 ± 0.45.
Turning to LSGLEDMSISSNDYSSDVAR, the amyloid nucleation score was 0.45 ± 0.8.
Turning to LSGRCFFNVLLINCKRTERI, the amyloid nucleation score was 2.1 ± 0.19.
In the case of LSHILMI, the amyloid nucleation score entry is “inactive”.
The substance LSIHLQRTQWYLLFEW gave an amyloid nucleation score of 0.01 ± 0.39.
For LSKCHCNILCVLMTCMWHLY, the amyloid nucleation score came to 0.333 ± 0.46.
LSKLNGGSSVTSV displayed an amyloid nucleation score of 0.665 ± 0.2.
For LSKRIDSRDMLGSGNHRCLL the value was -0.655 ± 0.64.
LSKSVLKNTWGVYVI yielded an amyloid nucleation score of -0.358 ± 0.79.
The substance LSLFSYPLHAPFLTMVSWPY gave an amyloid nucleation score of -0.78 ± 0.78.
With LSLLFH, the amyloid nucleation score entry was “inactive”.
LSLMHAQHSTMLDNSMTM: the amyloid nucleation score came to 0.621 ± 0.56.
Regarding LSLNG, the amyloid nucleation score was -0.955 ± 0.39.
Next, LSMTEWVFSKGNRALAVYYM: -1.39 ± 0.61; LSMTKLGVIGTSCNFLLW: “inactive”.
For LSMVDCGASDGLEQVFGLAG the value was 0.14 ± 0.33; for LSNEAWFGQGMLDGWGGGEG, 0.514 ± 0.56.
For LSNRSYFTSTAWYEKNRPA the value was -0.293 ± 0.26; for LSPRNPYAFVSAISDRIM, -0.97 ± 0.63.
For LSQGLIKRMYQHMCMKCVGF, the amyloid nucleation score is -0.08 ± 0.35.
On to LSRSRVINIYASAGWRFLGS, for which the amyloid nucleation score result was “inactive”.
Substance LSSCLHEIRDSVVVRVVVVY had an amyloid nucleation score of -0.684 ± 0.5.
LSSTRDR registered an amyloid nucleation score of -1.24 ± 0.48.
In the case of LSSTYRC, the amyloid nucleation score was -0.24 ± 0.39.
With LSSWS, the amyloid nucleation score is -0.611 ± 0.44.
In turn, LSVAFRVW displayed an amyloid nucleation score of -0.55 ± 0.49.
LSVGLNKYRNA returned an amyloid nucleation score of -0.919 ± 0.76.
Next, LSVPRIFGSFVWVRQ: -0.633 ± 1.1.
Substance LSVSPGSRDLREPEDSFMWS displayed an amyloid nucleation score of -0.05 ± 0.3.
Take LTAWIC: the amyloid nucleation score came out at 0.285 ± 1.
Substance LTCLLVRCSFVRCCVERPWS had an amyloid nucleation score of -0.732 ± 0.54.
LTCVSAR gave an amyloid nucleation score of 1.2 ± 0.16.
With LTEVIVFYIRYMQARDRLIR, the amyloid nucleation score entry was “inactive”.
As for LTFACSVLL, the amyloid nucleation score is 3.1 ± 0.092.
Substance LTHIKDRVELLLGGQFISDT gave an amyloid nucleation score of 0.011 ± 1.1.
LTICS: the amyloid nucleation score was -1.03 ± 0.78.
For LTISRSNLGARPF the value was -0.053 ± 0.39; for LTKGRSFCVNPFHITVDGQE, -0.761 ± 0.23.
As for LTMCICWLTQCMT, the amyloid nucleation score amounted to 6.283 ± 0.056.
For LTMVWNKSFGEIHRLWVGNS the value was -1.58 ± 0.62; for LTPIMAEKVLPYICQLLRGS, -0.228 ± 0.55; for LTRGTFRIQCTLTSAWRVAR, 4.62 ± 0.11.
As for LTSKAVAYNDLACFMLS, the amyloid nucleation score was 0.613 ± 0.74.
Substance LTSWDHN yielded an amyloid nucleation score of 0.131 ± 0.31.
On to LTTLKFRFFLIIKRSSAGCC, for which the amyloid nucleation score was found to be 0.461 ± 0.8.
As for LTTWNGCSDEC, the amyloid nucleation score was -0.557 ± 1.1.
For LTVFTPR the value was -0.62 ± 0.37; for LTVMSFTNNLHYLF, -0.552 ± 0.48.
Next, LTVRS: -0.42 ± 0.76; LTVTDG: 0.104 ± 0.37; LTYAYNISYFNWVYCGYWFC: 6.448 ± 0.042.
LTYLTWFLSMDQGMLNWLHV showed an amyloid nucleation score of 0.973 ± 0.35.
LTYYTNRTQYLML: the amyloid nucleation score is -0.424 ± 1.1.
With LVACMASDITNNMSRLYHLI, the amyloid nucleation score is -1.79 ± 1.1.
LVANSSVHVNSSTSNNRLAV yielded an amyloid nucleation score of -0.917 ± 0.56.
For LVDHLGFMRMSMAGSWWVEG the value was 0.42 ± 0.8.
For the substance LVFRLDFDYVRLCPNLANTL, the amyloid nucleation score worked out at 0.192 ± 1.
In turn, LVGFALGSDTLISRY displayed an amyloid nucleation score of -0.221 ± 1.1.
For LVGMSANNTVKYSK the value was 0.144 ± 0.36.
Take LVHPALVVWKQYWVVRLRDV: the amyloid nucleation score was found to be 6.43 ± 0.044.
As for LVIMGVCGWSGL, the amyloid nucleation score came out at 7.975 ± 0.038.
In turn, LVKVTLRVMISV returned an amyloid nucleation score of 0.099 ± 0.2.
For LVLYGFYVTSDLRWSLSWKM, the amyloid nucleation score was found to be 0.766 ± 0.2.
LVNWFVDYRSDVSHLQTGKV returned an amyloid nucleation score of 1.08 ± 0.36.
Take LVQLKRCQMSLWMRHYHRDE: the amyloid nucleation score amounted to 5.951 ± 0.055.
LVRPFWTLRYKTYHRSPVGR gave an amyloid nucleation score of 1.59 ± 0.15.
LVRPSGANPSCWAIINRGEI returned an amyloid nucleation score of 10.63 ± 0.079.
In turn, LVSADVCLGLMPSKSLGGRV had an amyloid nucleation score of 1.07 ± 0.54.
LVSRSYD: the amyloid nucleation score is -0.341 ± 0.79.
In the case of LVVIYMTRVGASTKLRVSVL, the amyloid nucleation score result was “inactive”.
Take LVWLKQGGTISMLMTCHLFA: the amyloid nucleation score turned out to be 0.477 ± 0.52.
Consider LVWTD, for which the amyloid nucleation score was -0.018 ± 1.1.
Consider LWAGDLFDRGP, for which the amyloid nucleation score was determined as 0.709 ± 0.66.
Next, LWGHLNHQWVCVSVMWVYLS: 3.64 ± 0.081.
For LWHFVLWYMWLLIGDVVGVC the value was -0.459 ± 1.1.
Next, LWILNNFGTIIFRTSHYKGV: 7.4 ± 0.078.
In the case of LWKLYLTVSRNLAVGISGGL, the amyloid nucleation score entry is “inactive”.
In the case of LWLMVCMMYM, the amyloid nucleation score was determined as 2.09 ± 0.15.
Consider LWLPQFEDCSREHTCEFLAI, for which the amyloid nucleation score was found to be 0.237 ± 0.56.
Turning to LWSVYYMSVIIFPFGKHPKQ, the amyloid nucleation score stood at 7.149 ± 0.056.
Take LWVARHIRIEFMLTFRIYKA: the amyloid nucleation score was 0.011 ± 1.1.
LWVFLLAWSAQLYDWSMATR: the amyloid nucleation score is -0.12 ± 0.79.
Next, LWVIISCSDYLNWLNRGMNE: 5.45 ± 0.056.
With LWYSL, the amyloid nucleation score was -0.558 ± 0.5.
Take LYCILPLRL: the amyloid nucleation score entry is “inactive”.
For LYDYYQICINGGRVFSDFPC the value was -0.474 ± 0.79.
For LYFDR the value was -0.417 ± 1.1; for LYLLM, -0.358 ± 1.
LYLTWCKTLSDNLAL yielded an amyloid nucleation score of -1.15 ± 0.76.
Next, LYLVVYIVASGSYACVRRST: 0.546 ± 0.4.
In turn, LYMVSPYRAKIRSQAFRLVT yielded an amyloid nucleation score of -0.388 ± 0.33.
Substance LYNRRPFPYGYGTGLCPQRI showed an amyloid nucleation score of -0.047 ± 0.79.
Consider LYNYSSFLNTVGVGYEIFMR, for which the amyloid nucleation score was -0.105 ± 1.1.
Next, LYQRNRLWGRKAWNTLWFSL: -0.506 ± 0.42; LYRMYPWVLVGCELFRMVCR: 0.108 ± 0.38; LYRVLNTVHVSHLQTIRP: -0.064 ± 1.1.
Turning to LYTQESYSDSFVNSLRCSKV, the amyloid nucleation score is -0.064 ± 1.1.
Substance LYVFLLCNITLTSPLFNLLF displayed an amyloid nucleation score of 3.92 ± 0.1.
Next, LYVQLQMEVVGPGVRLTGSL: 3.19 ± 0.077; LYWFMD: -1.16 ± 1.1; LYYAQSANRRLSGAWRFLF: -0.281 ± 0.79.
LYYASGRIRFCLHWHLIARV showed an amyloid nucleation score of 4.894 ± 0.041.
On to LYYFGTGAICMLLNWICPGC, for which the amyloid nucleation score entry was “inactive”.
The substance MACFECFTGISACNLNMRG gave an amyloid nucleation score of 8.574 ± 0.026.
MASITDDRADLHH: the amyloid nucleation score result was “inactive”.
In the case of MASSFQFSDTGSELTSREAR, the amyloid nucleation score is -0.237 ± 0.79.
For MCEFLIYWIYNFSFVSSPRL, the amyloid nucleation score is 0.157 ± 1.
MCRFVLSASCFMYIEHRYGR: the amyloid nucleation score came to 0.734 ± 0.81.
On to MCRRANGRVLGP, for which the amyloid nucleation score stood at 5.562 ± 0.042.
For the substance MCTSGGISG, the amyloid nucleation score was 0.346 ± 0.5.
Regarding MDFYYLGSVCHVDLLAQYLV, the amyloid nucleation score entry was “inactive”.
In turn, MDPSICSDSLRFGLYWISRR gave an amyloid nucleation score of 3.93 ± 0.12.
For MDVES, the amyloid nucleation score was -0.192 ± 0.45.
Next, MERDCVRVDLFRVSRGGWML: 5.863 ± 0.052; MEYPRLRSHNTAIFTLFQRP: 5.38 ± 0.055.
In turn, MEYRGQVQGCSYPWVYRLGW displayed an amyloid nucleation score of -0.078 ± 0.54.
The substance MFAGLIVLCLVWVYRRC yielded an amyloid nucleation score of 4.89 ± 0.061.
For MFCIWRE, the amyloid nucleation score is 0.907 ± 0.2.
In turn, MFFSFNVFDFGPL came in with an amyloid nucleation score of 4.698 ± 0.036.
Regarding MFIWPCYFHNIRVGQLFGFG, the amyloid nucleation score was 0.091 ± 0.63.
MFLVSFRCVSYSAWYLTYMQ had an amyloid nucleation score of -0.338 ± 0.63.
MFSFCRGSANSRLAQKDIVN gave an amyloid nucleation score of 0.023 ± 0.3.
For MGAAITSGEGYDLRLLIDNS the value was 0.208 ± 1.1; for MGRLNVYLNVRLISKVIGIQ, 3.63 ± 0.053; for MGTPTTEIGALTMGSEPFV, 1.24 ± 0.39.
Take MHCIFSNLV: the amyloid nucleation score entry is “inactive”.
The substance MHCSESSYYFAILRARHVLL yielded an amyloid nucleation score of 1.43 ± 0.12.
For MHMAYSLNMSHSHIRAKAGM the value was 1.06 ± 0.27; for MHMLWETTRWASWCGYLCMG, 4.93 ± 0.059; for MHSFLFLVIAM, “inactive”.
The substance MHWFPPYDWK gave an amyloid nucleation score of 0.266 ± 1.
MICDLMAVVNVQSKWRYSDK yielded an amyloid nucleation score of 5.052 ± 0.038.
On to MIGGDGPRDV, for which the amyloid nucleation score amounted to 0.745 ± 0.38.
For MILHCGASKGIPFLFGKDFL the value was -0.208 ± 0.16; for MISRSFPQSVFFLTDLWS, -0.667 ± 0.31.
